# Measurements from PMC7064779.
# Target: LecB-biotin (Pseudomonas aeruginosa lectin LecB, biotinylated) (Pseudomonas aeruginosa) (UniProt Q9HYN5)
# Assay: pull-down; LecB-biotin applied basolaterally to polarized filter-grown MDCK cells; cells lysed; LecB-biotin-receptor complexes precipitated with streptavidin beads; β1-integrin probed by Western blot in precipitate and supernatant
substance,measurement,value
"β1-integrin (glycosylated, endogenous in MDCK cells) (receptor)",percent of total β1-integrin extracted,75%
